Series [1] addresses T1, Timeless (optimised construct);Tipin (Homo sapiens;Homo sapiens, UniProt Q9UNS1;Q9BVW5 1-238+=GSTGST+331-1208;1-301, internal_change|). As to the kind of experiment: fluorescence anisotropy; 150 mM KCl, 5 mM MgCl2; FA at 25 C, 10 nM DNA: DBD in 25 mM HEPES-NaOH pH 7.2, 150 mM KCl, 0.5 mM EDTA, 0.005% Tween-20; Timeless-Tipin in 25 mM HEPES pH 7.1, 150 mM KCl, 1 mM DTT, 5 mM MgCl2; EMSA in 25 mM HEPES pH 7.1, 150 mM KCl, 5 mM MgCl2, 1 mM DTT on ice, 1% agarose at 4 C. As to conditions: protein: recombinant;recombinant, tags: His14-SUMO removed;His6-GST removed, copies: 1;1, label: 5' 6FAM.

Another series deals with Timeless DBD (Homo sapiens, UniProt Q9UNS1 816-954). The series can be described thus: fluorescence anisotropy; 150 mM KCl; FA at 25 C, 10 nM DNA: DBD in 25 mM HEPES-NaOH pH 7.2, 150 mM KCl, 0.5 mM EDTA, 0.005% Tween-20; Timeless-Tipin in 25 mM HEPES pH 7.1, 150 mM KCl, 1 mM DTT, 5 mM MgCl2; EMSA in 25 mM HEPES pH 7.1, 150 mM KCl, 5 mM MgCl2, 1 mM DTT on ice, 1% agarose at 4 C. As to conditions: protein: recombinant, tags: His14-SUMO removed.
Chain of Timeless DBD (Q9UNS1 816-954): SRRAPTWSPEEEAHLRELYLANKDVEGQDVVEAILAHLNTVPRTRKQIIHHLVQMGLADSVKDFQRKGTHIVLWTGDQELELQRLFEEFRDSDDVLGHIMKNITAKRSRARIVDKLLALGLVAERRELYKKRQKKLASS

Series [2] deals with T1, Timeless (optimised construct);Tipin. The series can be described thus: EMSA; 5 uM protein, 5 uM DNA; FA at 25 C, 10 nM DNA: DBD in 25 mM HEPES-NaOH pH 7.2, 150 mM KCl, 0.5 mM EDTA, 0.005% Tween-20; Timeless-Tipin in 25 mM HEPES pH 7.1, 150 mM KCl, 1 mM DTT, 5 mM MgCl2; EMSA in 25 mM HEPES pH 7.1, 150 mM KCl, 5 mM MgCl2, 1 mM DTT on ice, 1% agarose at 4 C. As to conditions: protein: recombinant;recombinant, tags: His14-SUMO removed;His6-GST removed, copies: 1;1, label: 5' 6FAM.

Where [3] appears, read: G4 intramolecular with ssDNA flanks.

T1 sequence (Q9UNS1 other isoform, or with tags, fused parts or gaps |, chain 1 of 2): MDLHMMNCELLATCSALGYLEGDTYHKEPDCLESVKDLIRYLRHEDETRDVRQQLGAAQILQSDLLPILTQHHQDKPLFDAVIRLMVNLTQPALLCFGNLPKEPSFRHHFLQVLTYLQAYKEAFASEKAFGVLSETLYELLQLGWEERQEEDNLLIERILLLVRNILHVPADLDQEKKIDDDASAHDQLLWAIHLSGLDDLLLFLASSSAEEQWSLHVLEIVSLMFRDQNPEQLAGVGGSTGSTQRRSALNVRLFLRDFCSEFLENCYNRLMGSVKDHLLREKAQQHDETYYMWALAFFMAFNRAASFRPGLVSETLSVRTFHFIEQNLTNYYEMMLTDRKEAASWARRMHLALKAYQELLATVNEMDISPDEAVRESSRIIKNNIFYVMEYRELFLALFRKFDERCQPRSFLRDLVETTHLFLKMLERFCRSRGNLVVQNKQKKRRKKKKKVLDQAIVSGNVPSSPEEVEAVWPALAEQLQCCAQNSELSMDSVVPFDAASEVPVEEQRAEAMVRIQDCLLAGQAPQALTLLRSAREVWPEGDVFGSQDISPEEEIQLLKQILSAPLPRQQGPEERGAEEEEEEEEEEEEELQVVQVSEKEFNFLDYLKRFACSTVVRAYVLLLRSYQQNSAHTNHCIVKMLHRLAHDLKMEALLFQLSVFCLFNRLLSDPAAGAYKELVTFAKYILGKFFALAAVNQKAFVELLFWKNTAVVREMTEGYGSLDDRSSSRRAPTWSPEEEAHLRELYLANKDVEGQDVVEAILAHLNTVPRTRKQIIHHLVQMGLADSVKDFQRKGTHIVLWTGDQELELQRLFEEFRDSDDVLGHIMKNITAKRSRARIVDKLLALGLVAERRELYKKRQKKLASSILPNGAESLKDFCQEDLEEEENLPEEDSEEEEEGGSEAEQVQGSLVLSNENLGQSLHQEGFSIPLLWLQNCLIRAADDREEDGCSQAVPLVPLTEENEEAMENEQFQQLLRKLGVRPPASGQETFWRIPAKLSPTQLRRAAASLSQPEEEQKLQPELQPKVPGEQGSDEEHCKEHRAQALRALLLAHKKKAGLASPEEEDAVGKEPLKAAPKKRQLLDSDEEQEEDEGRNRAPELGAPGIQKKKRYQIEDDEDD
T1 sequence (Q9BVW5 whole entry, change not shown, chain 2 of 2): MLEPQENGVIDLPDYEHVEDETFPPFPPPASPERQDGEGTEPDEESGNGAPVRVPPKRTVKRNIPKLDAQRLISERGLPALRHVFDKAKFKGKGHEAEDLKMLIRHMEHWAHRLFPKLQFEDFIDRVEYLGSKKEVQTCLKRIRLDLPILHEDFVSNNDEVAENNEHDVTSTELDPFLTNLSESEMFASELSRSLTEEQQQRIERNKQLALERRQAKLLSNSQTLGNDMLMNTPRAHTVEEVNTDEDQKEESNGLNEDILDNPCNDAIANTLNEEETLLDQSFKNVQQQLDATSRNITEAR

For the molecule TGAGGGTGGGTAGGGTGGGTAA (structured_DNA) [1XAV], the binding result in series [1] (G4 intramolecular) was “binds”.

B1: ds20 (dsDNA)
DNA 1: ATAAGAGTGGTTAGAGTGTA
DNA 2: TACACTCTAACCACTCTTAT
With B1, the binding result in series [1] (blunt) is “no binding”.

B2: dsDNA (Fig 2D) (dsDNA)
DNA 1: TGAGAGTGAGTAGAGTGAGTAA
DNA 2: TTACTCACTCTACTCACTCTCA
As to B2, the Kd with Timeless DBD (blunt) is roughly 800 nM.

B3: ssHP (structured_DNA)
DNA: ACGAGAGCTAGCACATTTTGAGGCTGCGTTTCGCAGCCTCAATTTCACGTAGAACCTGT
With B3, in series [2] (hairpin with ssDNA flanks), the binding result is on record as “no binding”.

B4: ssG4 (structured_DNA)
DNA: ACGAGAGCTAGCACATTTTGAGGGTGGGTAGGGTGGGTAATTTTCACGTAGAACCTGT
As for B4, in series [1] (setting [3]), the Kd worked out at 600 ± 30 nM.

B5: ss (ssDNA)
DNA: ACGAGAGCTAGCACATTTTGAGTGTCAGTAGCGTCTGTAATTTTCACGTAGAACCTGT
Regarding B5, the binding result in series [2] (single strand) was “no binding”.

As for TGAGAGTGAGTAGAGTGAGTAA (ssDNA) [ssDNA (Fig 2D)], the binding result in the series with Timeless DBD (single strand) is reported as “binds”.

B6: BU1 +3.5 (structured_DNA)
DNA: AGCTAGCACATTTTAAGGGCTGGGTGGGTGCTGTCAAGGGCTGGGTTTTCACGTAGAA
Consider B6, for which the binding result in series [2] (setting [3]) is reported as “binds”.

On to TGAGGGTGGGTAGGGTGGGTAA (structured_DNA) [G4 DNA (MYC, 1XAV) Cy3], for which, in the series with Timeless DBD (label: 3' Cy3, G4 intramolecular), the Kd is roughly 120 nM.

In the case of ATAAGAGTGGTTAGAGTGTA (ssDNA) [ss20], the binding result in series [1] (single strand) is on record as “no binding”.
